In patent publication US20200123252A1 (LAMKAP BIO BETA, published 2020):
Positions count from the first letter of the chain named.

Experiments:
[1] = target: T1, human CEACAM5 on MKN-45 cells (human, UniProt P06731 35-685); experiment: binding to MKN-45 cells (MFI), without shed CEA
T1 construct: Endogenous CEACAM5 on MKN-45 gastric adenocarcinoma cells, which also carry CD47 (and CEACAM6); also called CD66e; MKN45 CEA+ cancer cells
T1 sequence: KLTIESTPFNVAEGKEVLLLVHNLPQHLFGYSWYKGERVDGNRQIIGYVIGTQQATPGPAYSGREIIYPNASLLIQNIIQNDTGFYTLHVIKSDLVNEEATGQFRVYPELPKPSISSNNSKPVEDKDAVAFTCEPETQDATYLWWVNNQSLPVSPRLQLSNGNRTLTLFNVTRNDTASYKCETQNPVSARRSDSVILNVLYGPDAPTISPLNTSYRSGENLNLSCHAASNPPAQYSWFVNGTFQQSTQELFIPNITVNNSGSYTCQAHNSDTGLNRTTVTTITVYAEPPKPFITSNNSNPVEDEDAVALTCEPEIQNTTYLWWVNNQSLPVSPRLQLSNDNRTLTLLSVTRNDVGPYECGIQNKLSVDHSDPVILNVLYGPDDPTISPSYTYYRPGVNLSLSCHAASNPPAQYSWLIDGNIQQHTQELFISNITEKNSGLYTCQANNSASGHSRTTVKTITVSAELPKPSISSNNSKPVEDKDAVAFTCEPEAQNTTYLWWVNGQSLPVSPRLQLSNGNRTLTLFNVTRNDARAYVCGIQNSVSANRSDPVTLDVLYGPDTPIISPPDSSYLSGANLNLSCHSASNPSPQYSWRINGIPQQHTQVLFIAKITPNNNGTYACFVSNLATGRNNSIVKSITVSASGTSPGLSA

human CEACAM6 = target: T2, human CEACAM6 (human, UniProt P40199 35-320); experiment: statement in the legend of FIG. 21A (FACS on MKN-45 cells)
T2 construct: also called CD66c; biotinylated recombinant human CEACAM6
T2 sequence (looked up): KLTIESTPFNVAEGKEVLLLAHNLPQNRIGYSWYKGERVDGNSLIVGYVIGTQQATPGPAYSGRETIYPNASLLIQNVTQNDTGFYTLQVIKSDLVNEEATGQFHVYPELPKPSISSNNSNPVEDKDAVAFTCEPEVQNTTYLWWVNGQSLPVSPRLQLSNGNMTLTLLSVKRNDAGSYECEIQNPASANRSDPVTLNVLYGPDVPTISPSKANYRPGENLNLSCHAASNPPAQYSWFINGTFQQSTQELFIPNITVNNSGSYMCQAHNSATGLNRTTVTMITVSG

[2] = target: T3, human CD47 on MKN45 cells (human, UniProt Q08722 19-323); experiment: inhibition of SIRPα-mouseFc binding to CD47 on MKN45 cells, imaging (CX5)
T3 construct: whole, on cells; also called IAP
Source text: The detection of bound SIRPα cell-based assay monitoring the interaction of soluble SIRPα with human CD47 expressed at the surface of MKN45 is used for the detection of the blocking activity. Dose-response experiments with bispecific antibodies according to the invention allow determination of an IC50 value.
MKN45 cancer cells, expressing both CD47 and CEACAM5, are stained with CFSE violet to allow the imaging system (CX5) to detect the cells. Briefly, 3,000 stained MKN45 cells per well are seeded in a 384 optical well plate (Costar) and incubated for 50 minutes with increased concentrations of bispecific antibodies of the invention (1.9 pM to 333 nM, in quadruplicates). Then, a fixe concentration of SIRPα-mouseFc premixed with anti-mouse IgG-Fc AF647 coupled antibody (Jackson Immunoresearch diluted 1:2000) is added at 50 ng/mL final. After an incubation of 3H30 plates are acquired with the imaging system (CX5, Thermofisher) and fluorescence signals emitted by the detected bound SIRPα is recorded by the software dedicated to the imaging system. Fluorescence signals are plotted according to the dose range tested and IC50 are calculated by the software (Prism, Graphpad).

[3] = target: T1, human CEACAM5 on MKN-45 cells; experiment: FACS binding to MKN-45 cells, which express CD47, CEACAM5 and CEACAM6
shed CEA (soluble CEA) = target: T4, shed CEA (soluble CEA) (human, UniProt P06731 35-685, limits assumed); experiment: cell-based or functional assay
T4 sequence (looked up): T1 sequence with K364E

[4] = target: T1, human CEACAM5 on MKN-45 cells; experiment: binding to MKN-45 cells (MFI), in the presence of 200 ng/mL shed CEA
[5] = target: T1, human CEACAM5 on MKN-45 cells; experiment: flow cytometry on MKN45 CEA+ cells (carry CEACAM5 and CD47)

EC50 (read off the curve) [1]: ~0.5 µg/mL
binding result (human CEACAM6): no binding
IC50 [2]: 0.37 nM
EC50 (read off the curve) [3]: ~1 µg/mL
shift of EC50 of the phagocytosis index curve of MKN-45 cells by 200 ng/mL shed CEA (shed CEA (soluble CEA)): < 4 fold
EC50 (read off the curve) [4]: ~0.5 µg/mL
EC50 [5]: 16.5 nM
B1: K2AC22 CEA×CD47 bispecific antibody (bispecific antibody, human IgG1, kappa, lambda)
heavy: not shown
light 1: QSVLTQPPSVSAAPGQKVTISCSGSSSNIANGIVSWYQQLPGTAPKLLIYFDNLRPSGIPDRFSGSKSGTSATLGITGLQTGDEADYYCGTWDFSYGIVFGGGTKLTVLGQPKAAPSVTLFPPSSEELQANKATLVCLISDFYPGAVTVAWKADSSPVKAGVETTTPSKQSNNKYAASSYLSLTPEQWKSHRSYSCQVTHEGSTVEKTVAPTECS
light 2: not shown
notes: κλ body, human IgG1, common heavy chain; CEACAM5 arm light chain 1G6 (AC22)
